Data on twelve molecules can be found in US20050013808A1, “Nitroreductase enzymes” (priority 2001, published 2005).

Several values for one entry are separate records, joined by “and”; a condition that tells them apart may be missing. Equal entries are not always repeated.

Data set [1] has as its system UT5600 cells (NTR−) lysogens. Kind of data set: Survival curve (colony count) IC50 of CB1954 in NTR-expressing lysogens. The class given is cell-based, E. coli. The conditions noted are these: concentration of CB1954 giving 50% reduction in colony number after 36h growth; lysogen expressing the named NTR. Here is the method:
To quantify the improvement in NTR activity in the clones in a less subjective way, a few clones were selected for further study by determining their survival curves. The lysogens were grown overnight in LB +kanamycin and diluted to approximately 1 cell per μl based on the OD. In duplicate, 100 μl diluted cells were plated into Tris-buffered LB plates containing kanamycin, IPTG and 0-400 μM CB1954. After 36h growth the number of colonies on each plate were counted and expressed as a percentage of the number present on the plates with no CB1954. Survival curves showing % survival versus concentration of CB 1954 were plotted (see examples in FIG. 7) and the IC50 determined as the concentration of CB 1954 which kills gives a 50% reduction in colony number (Table 3 and FIG. 8). A few clones containing mutations resulting in an enhanced sensitivity to CB 1954 were selected for further study.

Data set [2] has as its system UT5600 cells (NTR−) lysogens. Kind of data set: Replica-plate screening of mutant NTR-expressing lysogens on increasing CB1954 (growth score). The class given is cell-based, E. coli. Also on record: key to Score: 0: Good growth on all concentrations of CB 1954 = vector; Good growth on 100 and 200, faint on 300, ring of growth on 400 μM; Good growth on 100 and 200, ring growth on 300, none or very faint on 400 μM; Good growth on 100, faint to good on 200, none or very faint on 300 and 400 μM; 4: Good growth on 100 μM, none to ring growth on 200 μM = wild type; Good growth on 50 μM, ring on 100 μM, none on 200, 300 or 400 μM; 6: Faint growth on 50 μM, ring on 100 μM; 7: Good growth on 50 μM, none on 100 μM; 8: Ring growth on 50 μM, none on 100 μM; 9: None or very faint growth on 50 μM, none on 100 μM; 10: None or ring growth on 35 μM. The conditions noted are these: for Score: growth of lysogens on agar with kanamycin, IPTG and 0-400 μM CB1954, wild type = 4, higher = more sensitive. As to the method: The ligation mix was packaged (Stratagene) into lambda bacteriophage particles that were used to infect UT5600 cells (NTR ^−). As a control wild type NTR was also cloned into this vector (JG16C2). Kanamycin resistant lysogens were selected on agar plates ([…] kanamycin) then individually grown overnight in a well of a 96-well plate in LB+Kanamycin. The clones were replica plated on to a series of plates containing Tris-buffered (50 mM, pH 7.5) LB agar with kanamycin, IPTG (0.1 mM) and CB1954 at a concentration of 0, 25, 35, 50, 100, 200, 300 or 400 μM (see FIG. 3). […]

B1: F124M (protein)
chain: MDIISVALKRHSTKAFDASKKLTPEQAEQIKTLLQYSPSSTNSQPWHFIVASTEEGKARVAKSAAGNYVFNERKMLDASHVVVFCAKTAMDDVWLKLVVDQEDADGRFATPEAKAANDKGRKFMADMHRKDLHDDAEWMAKQVYLNVGNFLLGVAALGLDAVPIEGFDAAILDAEFGLKEKGYTSLVVVPVGHHSVEDFNATLPKSRLPQNITLTEV
B1: half-maximal inhibition in data set [1] (IC50) was put at 33 µM. For the same molecule, in data set [2], the “nitroreductase activity with CB1954 compared with wild-type” value (from here on “nitroreductase activity with CB1954”) is recorded as “substantially greater activity with CB 1954 than the wild-type” and the Score worked out at 9.

B2: F124Y (protein)
chain: MDIISVALKRHSTKAFDASKKLTPEQAEQIKTLLQYSPSSTNSQPWHFIVASTEEGKARVAKSAAGNYVFNERKMLDASHVVVFCAKTAMDDVWLKLVVDQEDADGRFATPEAKAANDKGRKFYADMHRKDLHDDAEWMAKQVYLNVGNFLLGVAALGLDAVPIEGFDAAILDAEFGLKEKGYTSLVVVPVGHHSVEDFNATLPKSRLPQNITLTEV
Consider B2, for which, in data set [1], the IC50 was determined as 66 µM. Besides, in data set [2], the “nitroreductase activity with CB1954” value is given as “substantially greater activity with CB 1954 than the wild-type” and the Score was 5-7.

B3: F124G (protein)
chain: MDIISVALKRHSTKAFDASKKLTPEQAEQIKTLLQYSPSSTNSQPWHFIVASTEEGKARVAKSAAGNYVFNERKMLDASHVVVFCAKTAMDDVWLKLVVDQEDADGRFATPEAKAANDKGRKFGADMHRKDLHDDAEWMAKQVYLNVGNFLLGVAALGLDAVPIEGFDAAILDAEFGLKEKGYTSLVVVPVGHHSVEDFNATLPKSRLPQNITLTEV
Turning to B3, it took 49 µM to reach half-maximal inhibition in data set [1] (IC50). Moreover, in data set [2], the “nitroreductase activity with CB1954” value is “substantially greater activity with CB 1954 than the wild-type” and the Score turned out to be 7.

B4: Y68S (protein)
chain: MDIISVALKRHSTKAFDASKKLTPEQAEQIKTLLQYSPSSTNSQPWHFIVASTEEGKARVAKSAAGNSVFNERKMLDASHVVVFCAKTAMDDVWLKLVVDQEDADGRFATPEAKAANDKGRKFFADMHRKDLHDDAEWMAKQVYLNVGNFLLGVAALGLDAVPIEGFDAAILDAEFGLKEKGYTSLVVVPVGHHSVEDFNATLPKSRLPQNITLTEV
B4 returned an IC50 in data set [1] of 96 µM. Also, the Score in data set [2] is reported as 5-7.

B5: F124W (protein)
chain: MDIISVALKRHSTKAFDASKKLTPEQAEQIKTLLQYSPSSTNSQPWHFIVASTEEGKARVAKSAAGNYVFNERKMLDASHVVVFCAKTAMDDVWLKLVVDQEDADGRFATPEAKAANDKGRKFWADMHRKDLHDDAEWMAKQVYLNVGNFLLGVAALGLDAVPIEGFDAAILDAEFGLKEKGYTSLVVVPVGHHSVEDFNATLPKSRLPQNITLTEV
In data set [1], B5 displayed an IC50 of 56 µM. In data set [2], the “nitroreductase activity with CB1954” value is reported as “substantially greater activity with CB 1954 than the wild-type” and the Score is on record as 5-7.

B6: F124A (protein)
chain: MDIISVALKRHSTKAFDASKKLTPEQAEQIKTLLQYSPSSTNSQPWHFIVASTEEGKARVAKSAAGNYVFNERKMLDASHVVVFCAKTAMDDVWLKLVVDQEDADGRFATPEAKAANDKGRKFAADMHRKDLHDDAEWMAKQVYLNVGNFLLGVAALGLDAVPIEGFDAAILDAEFGLKEKGYTSLVVVPVGHHSVEDFNATLPKSRLPQNITLTEV
In the case of B6, the IC50 in data set [1] is 20 µM and 32 µM. In addition, in data set [2], the “nitroreductase activity with CB1954” value was “substantially greater activity with CB 1954 than the wild-type” and the Score was 7-9.

B7: Y68C (protein)
chain: MDIISVALKRHSTKAFDASKKLTPEQAEQIKTLLQYSPSSTNSQPWHFIVASTEEGKARVAKSAAGNCVFNERKMLDASHVVVFCAKTAMDDVWLKLVVDQEDADGRFATPEAKAANDKGRKFFADMHRKDLHDDAEWMAKQVYLNVGNFLLGVAALGLDAVPIEGFDAAILDAEFGLKEKGYTSLVVVPVGHHSVEDFNATLPKSRLPQNITLTEV
For the molecule B7, in data set [1], the IC50 was determined as 105 µM. The Score in data set [2] is given as 5.

B8: F124S (protein)
chain: MDIISVALKRHSTKAFDASKKLTPEQAEQIKTLLQYSPSSTNSQPWHFIVASTEEGKARVAKSAAGNYVFNERKMLDASHVVVFCAKTAMDDVWLKLVVDQEDADGRFATPEAKAANDKGRKFSADMHRKDLHDDAEWMAKQVYLNVGNFLLGVAALGLDAVPIEGFDAAILDAEFGLKEKGYTSLVVVPVGHHSVEDFNATLPKSRLPQNITLTEV
As for B8, the midpoint of inhibition in data set [1], the IC50, lay at 41 µM. Besides, in data set [2], the “nitroreductase activity with CB1954” value is given as “substantially greater activity with CB 1954 than the wild-type” and the Score was 7-9.

B9: F124Q (protein)
chain: MDIISVALKRHSTKAFDASKKLTPEQAEQIKTLLQYSPSSTNSQPWHFIVASTEEGKARVAKSAAGNYVFNERKMLDASHVVVFCAKTAMDDVWLKLVVDQEDADGRFATPEAKAANDKGRKFQADMHRKDLHDDAEWMAKQVYLNVGNFLLGVAALGLDAVPIEGFDAAILDAEFGLKEKGYTSLVVVPVGHHSVEDFNATLPKSRLPQNITLTEV
Take B9: in data set [1], the IC50 turned out to be 39 µM. In data set [2], the “nitroreductase activity with CB1954” value was “substantially greater activity with CB 1954 than the wild-type” and the Score is on record as 8.

B10: F124C (protein)
chain: MDIISVALKRHSTKAFDASKKLTPEQAEQIKTLLQYSPSSTNSQPWHFIVASTEEGKARVAKSAAGNYVFNERKMLDASHVVVFCAKTAMDDVWLKLVVDQEDADGRFATPEAKAANDKGRKFCADMHRKDLHDDAEWMAKQVYLNVGNFLLGVAALGLDAVPIEGFDAAILDAEFGLKEKGYTSLVVVPVGHHSVEDFNATLPKSRLPQNITLTEV
In turn, B10 returned an IC50 in data set [1] of 36 µM. In data set [2], the “nitroreductase activity with CB1954” value was “substantially greater activity with CB 1954 than the wild-type” and the Score is 7-9.

B11: F124T (protein)
chain: MDIISVALKRHSTKAFDASKKLTPEQAEQIKTLLQYSPSSTNSQPWHFIVASTEEGKARVAKSAAGNYVFNERKMLDASHVVVFCAKTAMDDVWLKLVVDQEDADGRFATPEAKAANDKGRKFTADMHRKDLHDDAEWMAKQVYLNVGNFLLGVAALGLDAVPIEGFDAAILDAEFGLKEKGYTSLVVVPVGHHSVEDFNATLPKSRLPQNITLTEV
On to B11, for which the IC50 in data set [1] was 56 µM and 87 µM. In addition, in data set [2], the “nitroreductase activity with CB1954” value is reported as “substantially greater activity with CB 1954 than the wild-type”; the Score is 7-9 and 7-8.

B12: F124V (protein)
chain: MDIISVALKRHSTKAFDASKKLTPEQAEQIKTLLQYSPSSTNSQPWHFIVASTEEGKARVAKSAAGNYVFNERKMLDASHVVVFCAKTAMDDVWLKLVVDQEDADGRFATPEAKAANDKGRKFVADMHRKDLHDDAEWMAKQVYLNVGNFLLGVAALGLDAVPIEGFDAAILDAEFGLKEKGYTSLVVVPVGHHSVEDFNATLPKSRLPQNITLTEV
B12: in data set [1], the IC50 is 37 µM and 53 µM. For the same molecule, in data set [2], the “nitroreductase activity with CB1954” value is recorded as “substantially greater activity with CB 1954 than the wild-type” and the Score is 7-9.

As a reminder, the IC50 is the midpoint of a concentration-inhibition curve.
